The test system of this data set is O=C1O[C@H]([C@@H](O)CO)C(=O)C1=O. Kind of data set: purified protein. Particulars: 1 mM GSH fixed, DHA 0-0.25 mM (Figure 3 legend: 0-2.5 mM), potassium phosphate, pH 7.5, 25 °C.

1 substance from PMC8939299, “Molecular characterization of a novel GSTO2 of Fasciola hepatica and its roles in modulating murine macrophages” (Parasite, 2022) can be followed below.

Broadly, the Km is the concentration of substrate that gives half-maximal velocity. As for rGSTO2 (Fasciola hepatica), the Km was found to be 287 µM.
